Numbered stars: 1 amine (or outer) side, 2 acyl side, 3 side chain; on linkers, the order of the positions; unused ones are H or OH. Bridge positions count the residues as written; N and C are the ends. Side chains are listed from the residue outwards. Ends that are not written are not given here. * marks the point of attachment. C20 diacid = O=C(O)CCCCCCCCCCCCCCCCCCC(=O)*; γGlu = O=C(O)[C@H](CCC(=O)[*:2])N[*:1]
T1: human amylin receptor (Amylin 3(a) receptor: human calcitonin receptor co-expressed with RAMP-3) (human, UniProt P30988 25-474; O60896 24-148, limits assumed)
T1 construct: whole, on cells; Used as cell membranes prepared from the Amylin 3(a)/CRE-luc BHK cells (Assay V); the complex is called the human amylin receptor; also called hAmylin-R; hAmylinR
T1 sequence (looked up) 1: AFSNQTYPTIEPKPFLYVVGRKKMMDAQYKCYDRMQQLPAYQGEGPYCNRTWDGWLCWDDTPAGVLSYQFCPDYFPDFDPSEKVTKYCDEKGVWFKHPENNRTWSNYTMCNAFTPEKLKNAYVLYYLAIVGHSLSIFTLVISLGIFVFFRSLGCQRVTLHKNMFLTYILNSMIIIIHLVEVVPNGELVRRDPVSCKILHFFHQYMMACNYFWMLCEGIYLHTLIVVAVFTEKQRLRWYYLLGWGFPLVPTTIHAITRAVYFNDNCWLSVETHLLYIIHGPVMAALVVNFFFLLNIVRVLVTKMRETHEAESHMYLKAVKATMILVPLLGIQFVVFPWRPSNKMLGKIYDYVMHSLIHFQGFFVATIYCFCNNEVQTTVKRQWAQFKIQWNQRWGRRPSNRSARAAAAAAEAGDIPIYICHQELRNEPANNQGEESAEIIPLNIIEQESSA
T1 sequence (looked up) 2: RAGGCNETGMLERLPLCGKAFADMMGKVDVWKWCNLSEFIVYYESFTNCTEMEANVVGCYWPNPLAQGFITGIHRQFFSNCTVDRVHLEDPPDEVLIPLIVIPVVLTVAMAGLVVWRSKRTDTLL

B1: N^ε1-[(4S)-4-carboxy-4-[[(4S)-4-carboxy-4-(19-carboxynonadecanoylamino)butanoyl]amino]butanoyl]-[Glu14,Arg17,Pro21,Pro27,Arg34,Glu35]-h-amylin (peptide)
peptide: K([γGlu-γGlu-C20 diacid])CNTATCATQRLAEFLRHSSPNFGAIPSSTNVGRETY-NH2
modifications: disulfide 2-7; N-terminus assumed
SMILES: CC[C@H](C)[C@H](NC(=O)[C@H](C)NC(=O)CNC(=O)[C@H](Cc1ccccc1)NC(=O)[C@H](CC(N)=O)NC(=O)[C@@H]1CCCN1C(=O)[C@H](CO)NC(=O)[C@H](CO)NC(=O)[C@H](Cc1c[nH]cn1)NC(=O)[C@H](CCCNC(=N)N)NC(=O)[C@H](CC(C)C)NC(=O)[C@H](Cc1ccccc1)NC(=O)[C@H](CCC(=O)O)NC(=O)[C@H](C)NC(=O)[C@H](CC(C)C)NC(=O)[C@H](CCCNC(=N)N)NC(=O)[C@H](CCC(N)=O)NC(=O)[C@@H](NC(=O)[C@H](C)NC(=O)[C@@H]1CSSC[C@H](NC(=O)[C@@H](N)CCCCNC(=O)CC[C@H](NC(=O)CC[C@H](NC(=O)CCCCCCCCCCCCCCCCCCC(=O)O)C(=O)O)C(=O)O)C(=O)N[C@@H](CC(N)=O)C(=O)N[C@@H]([C@@H](C)O)C(=O)N[C@@H](C)C(=O)N[C@@H]([C@@H](C)O)C(=O)N1)[C@@H](C)O)C(=O)N1CCC[C@H]1C(=O)N[C@@H](CO)C(=O)N[C@@H](CO)C(=O)N[C@H](C(=O)N[C@@H](CC(N)=O)C(=O)N[C@H](C(=O)NCC(=O)N[C@@H](CCCNC(=N)N)C(=O)N[C@@H](CCC(=O)O)C(=O)N[C@H](C(=O)N[C@@H](Cc1ccc(O)cc1)C(N)=O)[C@@H](C)O)C(C)C)[C@@H](C)O
notes: modifications are with respect to human amylin
B2: N^ε1-[(4S)-4-carboxy-4-[[(4S)-4-carboxy-4-(19-carboxynonadecanoylamino)butanoyl]amino]butanoyl]-[Glu14,Arg17,Pro21,Pro27,His34,Glu35]-h-amylin (peptide)
peptide: K([γGlu-γGlu-C20 diacid])CNTATCATQRLAEFLRHSSPNFGAIPSSTNVGHETY-NH2
modifications: disulfide 2-7; N-terminus assumed
SMILES: CC[C@H](C)[C@H](NC(=O)[C@H](C)NC(=O)CNC(=O)[C@H](Cc1ccccc1)NC(=O)[C@H](CC(N)=O)NC(=O)[C@@H]1CCCN1C(=O)[C@H](CO)NC(=O)[C@H](CO)NC(=O)[C@H](Cc1c[nH]cn1)NC(=O)[C@H](CCCNC(=N)N)NC(=O)[C@H](CC(C)C)NC(=O)[C@H](Cc1ccccc1)NC(=O)[C@H](CCC(=O)O)NC(=O)[C@H](C)NC(=O)[C@H](CC(C)C)NC(=O)[C@H](CCCNC(=N)N)NC(=O)[C@H](CCC(N)=O)NC(=O)[C@@H](NC(=O)[C@H](C)NC(=O)[C@@H]1CSSC[C@H](NC(=O)[C@@H](N)CCCCNC(=O)CC[C@H](NC(=O)CC[C@H](NC(=O)CCCCCCCCCCCCCCCCCCC(=O)O)C(=O)O)C(=O)O)C(=O)N[C@@H](CC(N)=O)C(=O)N[C@@H]([C@@H](C)O)C(=O)N[C@@H](C)C(=O)N[C@@H]([C@@H](C)O)C(=O)N1)[C@@H](C)O)C(=O)N1CCC[C@H]1C(=O)N[C@@H](CO)C(=O)N[C@@H](CO)C(=O)N[C@H](C(=O)N[C@@H](CC(N)=O)C(=O)N[C@H](C(=O)NCC(=O)N[C@@H](Cc1c[nH]cn1)C(=O)N[C@@H](CCC(=O)O)C(=O)N[C@H](C(=O)N[C@@H](Cc1ccc(O)cc1)C(N)=O)[C@@H](C)O)C(C)C)[C@@H](C)O
notes: as for B1
B3: N^ε1-[(4S)-4-carboxy-4-[[(4S)-4-carboxy-4-(19-carboxynonadecanoylamino)butanoyl]amino]butanoyl]-[Glu14,Arg17,Pro21,Pro27,Pro34,Arg35]-h-amylin (peptide)
peptide: K([γGlu-γGlu-C20 diacid])CNTATCATQRLAEFLRHSSPNFGAIPSSTNVGPRTY-NH2
modifications: disulfide 2-7; N-terminus assumed
SMILES: CC[C@H](C)[C@H](NC(=O)[C@H](C)NC(=O)CNC(=O)[C@H](Cc1ccccc1)NC(=O)[C@H](CC(N)=O)NC(=O)[C@@H]1CCCN1C(=O)[C@H](CO)NC(=O)[C@H](CO)NC(=O)[C@H](Cc1c[nH]cn1)NC(=O)[C@H](CCCNC(=N)N)NC(=O)[C@H](CC(C)C)NC(=O)[C@H](Cc1ccccc1)NC(=O)[C@H](CCC(=O)O)NC(=O)[C@H](C)NC(=O)[C@H](CC(C)C)NC(=O)[C@H](CCCNC(=N)N)NC(=O)[C@H](CCC(N)=O)NC(=O)[C@@H](NC(=O)[C@H](C)NC(=O)[C@@H]1CSSC[C@H](NC(=O)[C@@H](N)CCCCNC(=O)CC[C@H](NC(=O)CC[C@H](NC(=O)CCCCCCCCCCCCCCCCCCC(=O)O)C(=O)O)C(=O)O)C(=O)N[C@@H](CC(N)=O)C(=O)N[C@@H]([C@@H](C)O)C(=O)N[C@@H](C)C(=O)N[C@@H]([C@@H](C)O)C(=O)N1)[C@@H](C)O)C(=O)N1CCC[C@H]1C(=O)N[C@@H](CO)C(=O)N[C@@H](CO)C(=O)N[C@H](C(=O)N[C@@H](CC(N)=O)C(=O)N[C@H](C(=O)NCC(=O)N1CCC[C@H]1C(=O)N[C@@H](CCCNC(=N)N)C(=O)N[C@H](C(=O)N[C@@H](Cc1ccc(O)cc1)C(N)=O)[C@@H](C)O)C(C)C)[C@@H](C)O
notes: modifications are with respect to human amylin; also called compound 110
B4: N^ε1-[(4S)-4-carboxy-4-[[(4S)-4-carboxy-4-(19-carboxynonadecanoylamino)butanoyl]amino]butanoyl]-[Glu14,Arg17,Pro21,Pro27,Pro34,His35]-h-amylin (peptide)
peptide: K([γGlu-γGlu-C20 diacid])CNTATCATQRLAEFLRHSSPNFGAIPSSTNVGPHTY-NH2
modifications: disulfide 2-7 (inferred)
notes: as for B1
B5: N^ε1-[(4S)-4-carboxy-4-[[(4S)-4-carboxy-4-(19-carboxynonadecanoylamino)butanoyl]amino]butanoyl]-[Glu14,Arg17,Pro21,Pro27,Pro34,Phe37]-h-amylin (peptide)
peptide: K([γGlu-γGlu-C20 diacid])CNTATCATQRLAEFLRHSSPNFGAIPSSTNVGPNTF-NH2
modifications: disulfide 2-7; N-terminus assumed
SMILES: CC[C@H](C)[C@H](NC(=O)[C@H](C)NC(=O)CNC(=O)[C@H](Cc1ccccc1)NC(=O)[C@H](CC(N)=O)NC(=O)[C@@H]1CCCN1C(=O)[C@H](CO)NC(=O)[C@H](CO)NC(=O)[C@H](Cc1c[nH]cn1)NC(=O)[C@H](CCCNC(=N)N)NC(=O)[C@H](CC(C)C)NC(=O)[C@H](Cc1ccccc1)NC(=O)[C@H](CCC(=O)O)NC(=O)[C@H](C)NC(=O)[C@H](CC(C)C)NC(=O)[C@H](CCCNC(=N)N)NC(=O)[C@H](CCC(N)=O)NC(=O)[C@@H](NC(=O)[C@H](C)NC(=O)[C@@H]1CSSC[C@H](NC(=O)[C@@H](N)CCCCNC(=O)CC[C@H](NC(=O)CC[C@H](NC(=O)CCCCCCCCCCCCCCCCCCC(=O)O)C(=O)O)C(=O)O)C(=O)N[C@@H](CC(N)=O)C(=O)N[C@@H]([C@@H](C)O)C(=O)N[C@@H](C)C(=O)N[C@@H]([C@@H](C)O)C(=O)N1)[C@@H](C)O)C(=O)N1CCC[C@H]1C(=O)N[C@@H](CO)C(=O)N[C@@H](CO)C(=O)N[C@H](C(=O)N[C@@H](CC(N)=O)C(=O)N[C@H](C(=O)NCC(=O)N1CCC[C@H]1C(=O)N[C@@H](CC(N)=O)C(=O)N[C@H](C(=O)N[C@@H](Cc1ccccc1)C(N)=O)[C@@H](C)O)C(C)C)[C@@H](C)O
notes: as for B1
B6: N^ε1-[(4S)-4-carboxy-4-[[(4S)-4-carboxy-4-(19-carboxynonadecanoylamino)butanoyl]amino]butanoyl]-[Glu14,Arg17,Pro21,Pro31,Pro34,Glu35]-h-amylin (peptide)
peptide: K([γGlu-γGlu-C20 diacid])CNTATCATQRLAEFLRHSSPNFGAILSSTPVGPETY-NH2
modifications: disulfide 2-7 (inferred)
notes: as for B1
B7: N^ε1-[(4S)-4-carboxy-4-[[(4S)-4-carboxy-4-(19-carboxynonadecanoylamino)butanoyl]amino]butanoyl]-[Glu14,Arg17,Pro23,Pro34,Glu35]-h-amylin (peptide)
peptide: K([γGlu-γGlu-C20 diacid])CNTATCATQRLAEFLRHSSNNPGAILSSTNVGPETY-NH2
modifications: disulfide 2-7; N-terminus assumed
SMILES: CC[C@H](C)[C@H](NC(=O)[C@H](C)NC(=O)CNC(=O)[C@@H]1CCCN1C(=O)[C@H](CC(N)=O)NC(=O)[C@H](CC(N)=O)NC(=O)[C@H](CO)NC(=O)[C@H](CO)NC(=O)[C@H](Cc1c[nH]cn1)NC(=O)[C@H](CCCNC(=N)N)NC(=O)[C@H](CC(C)C)NC(=O)[C@H](Cc1ccccc1)NC(=O)[C@H](CCC(=O)O)NC(=O)[C@H](C)NC(=O)[C@H](CC(C)C)NC(=O)[C@H](CCCNC(=N)N)NC(=O)[C@H](CCC(N)=O)NC(=O)[C@@H](NC(=O)[C@H](C)NC(=O)[C@@H]1CSSC[C@H](NC(=O)[C@@H](N)CCCCNC(=O)CC[C@H](NC(=O)CC[C@H](NC(=O)CCCCCCCCCCCCCCCCCCC(=O)O)C(=O)O)C(=O)O)C(=O)N[C@@H](CC(N)=O)C(=O)N[C@@H]([C@@H](C)O)C(=O)N[C@@H](C)C(=O)N[C@@H]([C@@H](C)O)C(=O)N1)[C@@H](C)O)C(=O)N[C@@H](CC(C)C)C(=O)N[C@@H](CO)C(=O)N[C@@H](CO)C(=O)N[C@H](C(=O)N[C@@H](CC(N)=O)C(=O)N[C@H](C(=O)NCC(=O)N1CCC[C@H]1C(=O)N[C@@H](CCC(=O)O)C(=O)N[C@H](C(=O)N[C@@H](Cc1ccc(O)cc1)C(N)=O)[C@@H](C)O)C(C)C)[C@@H](C)O
notes: as for B1

target: T1, human amylin receptor (Amylin 3(a) …); assay: SPA competition binding, displacement of 125I-rat amylin from membranes of BHK cells with human calcitonin receptor + RAMP-3 (Assay V)
How it was run: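 SPA beads + BHK amylin 3(a)/CRE-luc membranes, 35 ng/μL final; buffer 50 mM Hepes pH 7.4, 1 mM CaCl2, 5 mM MgCl₂, 0.1% OA, 0.02% Tween20. 120 min, 25° C, shaken; scintillation count. IC₅₀ by one-site binding competition fit, taken as receptor affinity.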

Row | Binder | IC50 [nM]
1 | B1 | 0.957
2 | B2 | 0.525
3 | B3 | 0.326
4 | B4 | 0.377
5 | B5 | 0.152
6 | B6 | 0.069
7 | B7 | 1.19
